Reference: publication PMC8986097, “SUMO-mediated recruitment allows timely function of the Yen1 nuclease in mitotic cells” (PLoS Genetics, 2022)
Where a chain is given by its changes, count along the chain named. Names may count otherwise.

B1: Yen1 SIM1-2ΔΔ (D635A D636A D637A V675A E677A), HA-tagged, purified (natural protein, S. cerevisiae, UniProt P40028 1-759, looked up)
chain: MGVSQIWEFLKPYLQDSRIPLRKFVIDFNKSQKRAPRIAIDAYGWLFECGFIQNIDISARSRSRSRSPTRSPRDSDIDSSQEYYGSRSYTTTGKAVINFISRLKELLSLNVEFLLVFDGVMKPSFKRKFNHEQNATTCDDEKEYYSSWEQHVKNHEVYGNCKGLLAPSDPEFISLVRKLLDLMNISYVIACGEGEAQCVWLQVSGAVDFILSNDSDTLVFGGEKILKNYSKFYDDFGPSSITSHSPSRHHDSKESFVTVIDLPKINKVAGKKFDRLSLLFFSVLLGADYNRGVKGLGKNKSLQLAQCEDPNFSMEFYDIFKDFNLEDLTSESLRKSRYRLFQKRLYLYCKDHSVELFGRNYPVLLNQGSFEGWPSTVAIMHYFHPIVQPYFDEEVLSDKYINMAGNGHYRNLNFNELKYFLQSLNLPQISSFDKWFHDSMHEMFLLREFLSIDESDNIGKGNMRITEEKIMNIDGGKFQIPCFKIRYTTFLPNIPISSQSPLKRSNSPSRSKSPTRRQMDIMEHPNSLWLPKYLIPQSHPLVIQYYETQQLIQKEKEKKGKKSNKSRLPQKNNLDEFLRKHTSPIKSIGKVGESRKEILEPVRKRLFVDTDEDTSLEEIPAPTRLTTVDEHSDNAAASLIFVDEITNSQSVLDSSPGKRIRDLTQDEQVDVWKDAIAISPIKKSRTTNAEKNPPESGLKSRSSITINARLQGTKMLPPNLTAPRLEREHSSVLDQLVTDAQDTVDRFVACDSDSSSTIE
B2: Yen1 SIM1Δ (D635A D636A D637A), HA-tagged, purified (natural protein, S. cerevisiae, UniProt P40028 1-759, looked up)
chain: B1 chain with A675V, A677E
B3: Yen1 SIM2Δ (V675A E677A), HA-tagged, purified (natural protein, S. cerevisiae, UniProt P40028 1-759, looked up)
chain: B1 chain with A635D, A636D, A637D

Biological target: GST-Smt3 (S. cerevisiae, UniProt Q12306 1-101 = SUMO)
Assay: cell-based or functional assay

Chain of GST-Smt3 (Q12306 whole entry): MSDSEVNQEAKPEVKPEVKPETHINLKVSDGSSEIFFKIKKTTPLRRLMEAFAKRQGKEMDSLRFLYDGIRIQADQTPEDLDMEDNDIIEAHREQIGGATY

| Binder | fraction of SUMOylated Yen1 recovered by denaturing Ni-NTA pull-down of 6xHis-Smt3 from cells grown in 0.3% MMS, relative to wild-type Yen1 |
| --- | --- |
| B1 | 1% |
| B2 | 5% |
| B3 | ~20% |
